Where no end group is shown, it is not given here. Side-chain parts run from the residue outwards. [ ]: non-standard residue; d: D form. The star is where a group is joined. X1 = 5‑aminoethylsulfonamide isoquinoline, O=S(=O)(NCCN*)c1cccc2cnccc12; hLeu = CC(C)CC[C@H](N)C(=O)O; Nle = CCCC[C@H](N)C(=O)O; Orn = NCCC[C@H](N)C(=O)O; Dab = NCC[C@H](N)C(=O)O; Nva = CCC[C@H](N)C(=O)O; Abu = CC[C@H](N)C(=O)O; Dap = NC[C@H](N)C(=O)O; GlyNH2 = aminoglycine; βAla = NCCC(=O)O
What was measured:
protein kinase B = protein kinase B (UniProt P31749); assay: cell-based or functional assay
[1] = biological target: protein kinase A, catalytic subunit; assay: cell-based or functional assay

protein kinase B, sequence (P31749 whole entry): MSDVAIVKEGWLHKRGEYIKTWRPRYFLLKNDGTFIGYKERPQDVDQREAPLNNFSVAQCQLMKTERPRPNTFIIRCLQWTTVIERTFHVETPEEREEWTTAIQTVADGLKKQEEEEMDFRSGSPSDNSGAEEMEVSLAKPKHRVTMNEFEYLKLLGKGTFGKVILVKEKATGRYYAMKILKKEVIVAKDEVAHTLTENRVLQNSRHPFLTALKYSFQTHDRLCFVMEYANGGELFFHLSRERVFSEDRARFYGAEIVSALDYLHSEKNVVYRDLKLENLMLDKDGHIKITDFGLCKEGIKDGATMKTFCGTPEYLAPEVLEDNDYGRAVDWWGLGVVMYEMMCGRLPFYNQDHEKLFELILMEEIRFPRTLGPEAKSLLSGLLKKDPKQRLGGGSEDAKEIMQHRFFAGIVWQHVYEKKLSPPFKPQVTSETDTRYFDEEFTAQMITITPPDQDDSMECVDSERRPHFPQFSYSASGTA

| Binder | % Inhibition PKB I (protein kinase B) | % Inhibition PKB II (protein kinase B) | % Inhibition PKA [1] | % inhibition of kinase activity at 1 µM; PKB-kinase (spa) Assay 1 (protein kinase B) | % inhibition of kinase activity at 1 µM; PKB-kinase (spa) Assay 2 (protein kinase B) | % inhibition of kinase activity at 1 µM; PKA-kinase Assay 1 [1] | % inhibition of kinase activity at 1 µM; PKA-kinase Assay 2 [1] | IC50 µM PKB (protein kinase B) | IC50 µM PKA [1] | IC50 PKB (protein kinase B) | IC50 PKA [1] |
| --- | --- | --- | --- | --- | --- | --- | --- | --- | --- | --- | --- |
| RPRT[GlyNH2]A[hLeu] [60005-32] | 43% | 44% | 4% |  |  |  |  |  |  |  |  |
| RPRT[Abu][Dap]F [60002-88] | 40% |  | -3% |  |  |  |  |  |  |  |  |
| RPR[Nva]GA[hLeu] [60006-18A] | 47% | 52% | 11% |  |  |  |  | 9.45 µM | > 100 µM |  |  |
| RPR[Orn]E(X1)[Orn]F (not fully specified (C-terminus)) [TY-60020-11] |  |  |  | 58% | 52% | 95% | 96% |  |  |  |  |
| RPR[Nle]E([Gly-X1])[Dab]F (not fully specified (C-terminus)) [TY-60020-57] |  |  |  | 92% | 93% | 95% | 96% |  |  | 70 nM | 210 nM |
| RPR[Nle]E([Gly-X1])[Orn]F (not fully specified (C-terminus)) [TY-60020-59] |  |  |  | 62% | 75% | 92% | 93% |  |  | 300 nM | 200 nM |

Further lines, results first:

| % Inhibition PKB I (protein kinase B) | % Inhibition PKB II (protein kinase B) | % Inhibition PKA [1] | % inhibition of kinase activity at 1 µM; PKB-kinase (spa) Assay 1 (protein kinase B) | % inhibition of kinase activity at 1 µM; PKB-kinase (spa) Assay 2 (protein kinase B) | % inhibition of kinase activity at 1 µM; PKA-kinase Assay 1 [1] | % inhibition of kinase activity at 1 µM; PKA-kinase Assay 2 [1] | IC50 µM PKB (protein kinase B) | IC50 µM PKA [1] | IC50 PKB (protein kinase B) | IC50 PKA [1] | Binder |
| --- | --- | --- | --- | --- | --- | --- | --- | --- | --- | --- | --- |
|  |  |  | 71% | 57% | 96% | 97% |  |  |  |  | RPR[Orn]E(X1)[Dab]F (not fully specified (C-terminus)) [TY-60020-9] |
|  |  |  | 46% | 90% |  |  |  |  | 3300 nM | 2000 nM | RPR[Nle]E([βAla-X1])[Nva]F (not fully specified (C-terminus)) [TY-60020-95] |
|  |  |  | 45% | 48% | 92% | 94% |  |  |  |  | RPR[Orn]E(X1)[Dab][hLeu] (not fully specified (C-terminus)) [TY-60020-10] |
| 39% | 48% | 7% |  |  |  |  |  |  |  |  | RPR[Nva]TA[hLeu] [60005-84] |
| 70% | 70% | -4% |  |  |  |  |  |  |  |  | RPR[Nva]S[GlyNH2][hLeu] [60005-75] |
|  |  |  | 89% | 93% | 98% | 99% |  |  | 120 nM | 50 nM | RPR[Nle]E([Gly-X1])[Dab][hLeu] (not fully specified (C-terminus)) [TY-60020-58] |
| 43% |  | -2% |  |  |  |  | 18 µM | 80 µM |  |  | RPR[Nva]SAF [60002-38] |

From patent US7407939
